Measurements as given in US20060275780, “Cross-linking reagents and uses thereof” (Beckman Coulter, Inc., published 2006).

What was measured:
[1] = target: T1, FGFb (fibroblast growth factor-basic, bFGF, FGF2) (UniProt P09038 P09038:143-288); assay: Ru(bpy)3 2+/APS visible-light cross-linking; urea gel and printed aptamer array with anti-FGF ELF detection; complex stable to 1N NaOH 1% SDS when cross-linked
From the text: bFGF photoaptamer (GCG AAG GCA CAC CGA GXX CAX AGX AXC CCA, where X=BrdU; SEQ ID NO:1) was mixed with FGFb ligand overnight to achieve maximal aptamer-ligand binding. White light-mediated photolysis of tris-bipyridylruthenium (II) complex was employed to cross-link the aptamer to the ligand in the presence of APS. The solution was then boiled in the presence of urea-SDS to dissociate bound but uncross-linked ligand from the aptamer. The mixture was subsequently applied to a urea slab gel to separate free aptamer from the cross-linked aptamer-ligand complex by electrophoresis. SYBR Gold staining was used to determine the presence of the aptamer, while double-staining with silver stain was used to determine the presence of the ligand. Referring to FIG. 1, the test sample consisted of bFGF photoaptamer and fibroblast growth factor-basic (FGFb) ligand; the control sample consisted of only bFGF photoaptamer. The test and control samples were incubated overnight prior to PICUP (photo-induced cross-linking of unmodified proteins)-like cross-linking. The samples (12 ul/each) were run on a 6% TBE-urea gel. […] Both the test and control samples were subject to denaturing conditions (100° C. for 5 minutes in TBE-urea sample buffer) prior to electrophoresis.
In FIG. 2, FGFb ligand was applied to an array of aptamers and incubated for 48 hours to achieve maximal binding. […]

[2] = target: T1, FGFb (fibroblast growth factor-basic, …); assay: printed aptamer array; stated to bind as tightly as the BrdU aptamer; cross-linking avidity lower (curve shifted right) after 1N NaOH 1% SDS
Procedure: FGFb bindings by bFGF photoaptamer and bFGF native aptamer (GCGAAGGCACACCGAGTTCATAGTATCCCA; SEQ ID NO:2) were compared. Referring to FIG. 3, * denotes PICUP-like cross-linking (the left two columns), while the remaining wells represent non-covalent ligand capture (the right two columns). Samples in plates 1* and 7 were treated with 1N NaOH, 1% SDS to remove the non-covalently bound ligand.
This hypothesis was tested by titrating increasing concentrations of FGFb against the two aptamers and plotting binding curves. Referring to FIG. 4, in the left panel, the two left hand side columns of each array were printed with bFGF photoaptamer, while the two right hand side columns were printed with bFGF native aptamer. The eighteen arrays in the left panel were cross-linked using a PICUP-like protocol, whereas the six arrays in the right panel represent non-covalent binding. All wells were treated with 1N NaOH, 1% SDS to strip the non-covalently bound ligand. The displacement of the bFGF native aptamer binding curve (diamonds) to the right of the bFGF photoaptamer curve (squares) confirmed that the cross-linking avidity of the bFGF native aptamer is lower than its BrdU-modified bFGF photoaptamer analog (FIG. 5).

T1 sequence (P09038 143-288, one chain of several): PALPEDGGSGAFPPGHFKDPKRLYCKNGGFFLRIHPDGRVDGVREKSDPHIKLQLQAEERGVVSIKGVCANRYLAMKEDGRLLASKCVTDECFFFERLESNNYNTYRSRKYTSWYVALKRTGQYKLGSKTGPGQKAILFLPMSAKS

B1: bFGF photoaptamer (ssDNA)
DNA: GCGAAGGCACACCGAGTTCATAGTATCCCA
modifications: BrdU at the five n positions (17, 18, 22, 25, 27), replacing T [n positions 17,18,21,24,26 = modified dU]
binding result [1]: binds

B2: bFGF native aptamer (ssDNA)
DNA: GCGAAGGCACACCGAGTTCATAGTATCCCA
binding result [2]: binds
